Measured values published in US20240254222A1 (Bayer, published 2024).
Substitutions are numbered along the chain they refer to. Values belong to the binder of their own block, whether it stands above or below them.

Legend:
Experiment in all cases: SPR, captured antibody, Sema3A domain analyte
[1] = target: T1, Human Semaphorin3A-Sema Domain, TPP-19068 (human, UniProt Q14563 21-569)
T1 construct: produced inhouse in HEK293-6E; also called human monovalent Sema3A domain
T1 sequence: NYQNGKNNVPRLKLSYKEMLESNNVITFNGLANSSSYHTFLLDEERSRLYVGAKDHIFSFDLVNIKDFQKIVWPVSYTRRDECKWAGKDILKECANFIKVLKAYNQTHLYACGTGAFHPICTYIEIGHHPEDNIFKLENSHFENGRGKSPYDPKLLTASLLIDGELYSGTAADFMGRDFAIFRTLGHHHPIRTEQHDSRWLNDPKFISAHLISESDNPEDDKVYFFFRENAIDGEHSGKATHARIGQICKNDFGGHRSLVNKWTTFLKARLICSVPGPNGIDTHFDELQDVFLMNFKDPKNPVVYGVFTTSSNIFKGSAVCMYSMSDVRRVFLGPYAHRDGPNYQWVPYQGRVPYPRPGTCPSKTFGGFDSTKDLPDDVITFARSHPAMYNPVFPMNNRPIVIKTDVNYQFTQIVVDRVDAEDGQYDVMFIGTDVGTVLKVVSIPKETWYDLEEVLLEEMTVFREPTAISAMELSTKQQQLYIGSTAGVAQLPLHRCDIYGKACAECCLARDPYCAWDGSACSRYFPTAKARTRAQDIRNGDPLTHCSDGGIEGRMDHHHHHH
Procedure: (§1) To assess the binding activity of anti-Sema3A antibodies binding assays were conducted using surface plasmon resonance (SPR). Binding assays were performed on a Biacore T200 instrument (Cytiva) at 25° C. using assay buffer HBS P+, 300 mM NaCl, 0.75 mM CaCl₂, 2.5 mM MgCl₂, 1 mg/ml BSA, 0.05% NaN₃. Antibodies were captured via anti-human Fc IgGs (“Human antibody capture kit”, Order No. BR100839, Cytiva) covalently amine coupled to a Series S CM5 sensor chip (Cytiva). The amine coupling was carried out according to the manufacturer's instructions using 1-ethyl-3-(3-dimethylaminopropyl) carbodiimide hydrochloride (EDC), N-hydroxysuccinimide (NHS) and ethanolamine HCl, pH 8.5 (“Amine Coupling Kit” BR-1000-50, Cytiva.). Human, mouse, cynomolgus, rat, dog and pig monovalent Sema3A domain were used as analytes in a concentration series from 0.024-3.125 nM in multi cycle kinetics mode. The sensor surface was regenerated with glycine pH 2.0 after each antigen injection. Obtained sensorgrams were double referenced (subtraction of reference flow cell signal and buffer injection) and were fitted to a 1:1 Langmuir binding model using the Biacore T200 Evaluation software obtaining the experimental fitted RMax value. To calculate the binding activity first the theoretical RMax needs to be calculated according to equation 1: […]
(§2) Binding activity was determined by dividing the experimental determined RMax by the theoretical calculated RMax according to equation 2: […]

[2] = target: T2, Mouse Semaphorin3A-Sema Domain, TPP-19069 (mouse, UniProt O08665 21-569)
T2 construct: produced inhouse
T2 sequence: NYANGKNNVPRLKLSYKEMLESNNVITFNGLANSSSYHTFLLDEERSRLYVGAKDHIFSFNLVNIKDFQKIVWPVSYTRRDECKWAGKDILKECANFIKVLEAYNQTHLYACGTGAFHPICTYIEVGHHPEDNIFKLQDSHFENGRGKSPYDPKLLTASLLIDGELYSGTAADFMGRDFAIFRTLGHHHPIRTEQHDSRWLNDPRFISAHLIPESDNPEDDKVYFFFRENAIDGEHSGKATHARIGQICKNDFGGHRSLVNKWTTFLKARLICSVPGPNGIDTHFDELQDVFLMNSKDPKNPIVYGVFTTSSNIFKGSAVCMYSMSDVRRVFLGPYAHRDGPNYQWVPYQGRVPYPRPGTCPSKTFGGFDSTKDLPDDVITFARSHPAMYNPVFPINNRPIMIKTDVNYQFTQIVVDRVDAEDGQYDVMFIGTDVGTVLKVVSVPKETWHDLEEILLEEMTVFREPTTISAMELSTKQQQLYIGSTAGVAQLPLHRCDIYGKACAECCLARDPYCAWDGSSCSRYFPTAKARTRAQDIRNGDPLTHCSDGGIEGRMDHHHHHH
Procedure: as §1, §2

[3] = target: T3, Dog Semaphorin3A-Sema Domain, TPP-19121 (dog, UniProt Q63548 21-569 (rat entry), limits assumed)
T3 construct: produced inhouse
T3 chain: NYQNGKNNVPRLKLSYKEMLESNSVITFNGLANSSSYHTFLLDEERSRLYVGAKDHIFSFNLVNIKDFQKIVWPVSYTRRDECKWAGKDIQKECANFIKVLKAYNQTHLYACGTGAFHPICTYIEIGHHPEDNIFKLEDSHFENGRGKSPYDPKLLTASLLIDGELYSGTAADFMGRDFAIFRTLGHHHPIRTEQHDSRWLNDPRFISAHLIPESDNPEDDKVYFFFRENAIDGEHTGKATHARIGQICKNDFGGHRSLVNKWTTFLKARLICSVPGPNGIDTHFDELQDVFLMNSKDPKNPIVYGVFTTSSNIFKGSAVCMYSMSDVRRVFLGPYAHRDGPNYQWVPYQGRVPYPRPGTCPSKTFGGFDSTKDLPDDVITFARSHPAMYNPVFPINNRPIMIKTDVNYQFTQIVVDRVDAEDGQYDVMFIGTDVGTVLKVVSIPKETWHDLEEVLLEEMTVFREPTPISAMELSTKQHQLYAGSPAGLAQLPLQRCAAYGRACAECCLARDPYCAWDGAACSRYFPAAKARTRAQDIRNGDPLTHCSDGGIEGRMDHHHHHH
Procedure: as §1, §2

[4] = target: T4, Rat Semaphorin3A-Sema Domain, TPP-19120 (rat, UniProt Q63548 21-569)
T4 construct: produced inhouse
T4 sequence: T2 sequence with E102K, I455V
Procedure: as §1, §2

B2: TPP-15370 (antibody, human IgG1, lambda, V domains shown)
VH: EVQLLESGGGLVQPGGSLRLSCAASGFTFSSYGMHWVRQAPGKGLEWVSAIGTGGDTYYADSVMGRFTISRDNSKNTLYLQMNSLRAEDTAVYYCARRDDYTSRDAFDVWGQGTLVTVSS
VL: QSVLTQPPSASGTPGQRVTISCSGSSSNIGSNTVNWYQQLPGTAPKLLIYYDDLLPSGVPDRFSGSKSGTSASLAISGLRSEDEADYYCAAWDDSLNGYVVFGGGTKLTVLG
notes: human IgG1; also called IgG1, hit from panning; parental mAb
Binding Activity [%] [1]: 112%
Binding Activity [%] [2]: 11%
Binding Activity [%] [3]: 114%
Binding Activity [%] [4]: 113%

B3: TPP-17755 (antibody, human IgG1, lambda, V domains shown)
VH: EVQLLESGGGLVQTGGSLRLSCAASGFTFSDYAMSWVRQAPGKGLEWVSWIYYDSGSKYYADSVKGRFTISRDNSKNTLYLQMNSLRAEDTAVYYCAKLNGDFDYWGQGTLVTVSS
VL: QSVLTQPPSASGTPGQRVTISCSGSSSNIGNNDVSWYQQLPGTAPKLLIYADSHRPSGVPDRFSGSKSGTSASLAISGLRSEDEADYYCGAWDSSLSGYVFGGGTKLTVLG
notes: also called Samsung; Samsung Prior Art F11
Binding Activity [%] [1]: 55%
Binding Activity [%] [2]: 57%
Binding Activity [%] [3]: 55%
Binding Activity [%] [4]: 56%

B4: TPP-11489 (antibody, human IgG1, lambda)
heavy: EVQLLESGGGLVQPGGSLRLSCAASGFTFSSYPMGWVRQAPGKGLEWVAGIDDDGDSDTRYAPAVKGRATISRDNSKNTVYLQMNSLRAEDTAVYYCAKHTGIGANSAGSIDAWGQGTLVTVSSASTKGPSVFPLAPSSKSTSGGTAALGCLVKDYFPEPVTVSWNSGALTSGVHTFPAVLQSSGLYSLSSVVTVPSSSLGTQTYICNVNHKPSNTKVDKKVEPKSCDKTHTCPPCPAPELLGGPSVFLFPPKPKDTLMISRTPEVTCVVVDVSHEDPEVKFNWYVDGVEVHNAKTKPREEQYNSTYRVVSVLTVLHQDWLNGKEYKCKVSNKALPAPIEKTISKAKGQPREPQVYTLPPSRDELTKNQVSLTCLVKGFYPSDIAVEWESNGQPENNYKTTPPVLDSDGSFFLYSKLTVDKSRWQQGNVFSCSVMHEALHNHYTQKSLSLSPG
light: SYELTQPPSVSVSPGQTARITCSGGGSYTGSYYYGWYQQKPGQAPVTVIYYNNKRPSDIPERFSGSLSGTTNTLTISGVQAEDEADYYCGSADNSGDAFGTGTKVTVLGQPKAAPSVTLFPPSSEELQANKATLVCLISDFYPGAVTVAWKADSSPVKAGVETTTPSKQSNNKYAASSYLSLTPEQWKSHRSYSCQVTHEGSTVEKTVAPTECS
notes: human IgG1; also called Chiome; Chiome Prior Art (hIgG1)
Binding Activity [%] [1]: 38%
Binding Activity [%] [2]: 118%
Binding Activity [%] [3]: 22%
Binding Activity [%] [4]: 31%

B5: TPP-15374 (antibody, human IgG1, lambda, V domains shown)
VH: EVQLLESGGGLVQPGGSLRLSCAASGFTFSSYEMNWVRQAPGKGLEWVSGISWNSGSIGYADSVKGRFTISRDNSKNTLYLQMNSLRAEDTAVYYCARSGYSSSWFDPDFDYWGQGTLVTVSS
VL: QSVLTQPPSASGTPGQRVTISCTGSSSNIGAGYDVHWYQQLPGTAPKLLIYGNSNRPSGVPDRFSGSKSGTSASLAISGLRSEDEADYYCSSYAGSNPYVVFGGGTKLTVLG
notes: as for B2
Binding Activity [%] [1]: 10%
Binding Activity [%] [2]: 106%
Binding Activity [%] [3]: 98%
Binding Activity [%] [4]: 94%

B6: TPP-30788 (antibody, human IgG1, kappa, V domains shown)
VH: EVQLVESGGGLVQPGGSLRLSCAASGFTFSSYYMSWVRQAPGKGLEWVSTIIKSGGYAYYPDSVKDRFTISRDNSKNTLYLQMSSLRAEDTAVYYCVRGGQGAMDYWGQGTTVTVSS
VL: EIVLTQSPATLSLSPGERATLSCRASQSIGDYLHWYQQKPGQAPRLLIKYASQSISGIPARFSGSGSGTDFTLTITSLEPEDFAVYYCQQGYSFPYTFGGGTKLEIKR
notes: prior art, WO 2020/225400; also called BI clone I; Böhringer (BI) Clone I
Binding Activity [%] [1]: 107%
Binding Activity [%] [2]: 108%
Binding Activity [%] [3]: 106%
Binding Activity [%] [4]: 109%

Continued, values first:

Binding Activity [%] [1]: 107%
Binding Activity [%] [2]: 108%
Binding Activity [%] [3]: 107%
Binding Activity [%] [4]: 108%
B1: TPP-23298 (antibody, human IgG4 S228P, lambda, V domains shown)
VH: B2 VH with S30Y, G33A, H35S, M64K, V109Y
VL: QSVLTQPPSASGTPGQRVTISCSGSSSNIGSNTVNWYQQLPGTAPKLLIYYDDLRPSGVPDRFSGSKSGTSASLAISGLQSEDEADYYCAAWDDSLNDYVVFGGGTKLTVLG

Binding Activity [%] [1]: 93%
Binding Activity [%] [2]: 93%
Binding Activity [%] [3]: 92%
Binding Activity [%] [4]: 94%
B7: TPP-30790 (antibody, human IgG1, kappa, V domains shown)
VH: B6 VH with P14L, S84N, R98K
VL: B6 VL with K49Y, T76S
notes: prior art, WO 2020/225400; also called BI clone III; Böhringer (BI) Clone III

Binding Activity [%] [1]: 107%
Binding Activity [%] [2]: 107%
Binding Activity [%] [3]: 106%
Binding Activity [%] [4]: 109%
B8: TPP-30791 (antibody, human IgG1, kappa, V domains shown)
VH: B6 VH with V12L, P14L, Y80N, S84N, R98K
VL: B6 VL with T76S
notes: prior art, WO 2020/225400; also called BI clone IV; Böhringer (BI) Clone IV

Binding Activity [%] [1]: 106%
Binding Activity [%] [2]: 103%
Binding Activity [%] [3]: 102%
Binding Activity [%] [4]: 104%
B9: TPP-30789 (antibody, human IgG1, kappa, V domains shown)
VH: B6 VH with T28P
VL: B6 VL
notes: prior art, WO 2020/225400; also called BI clone II; Böhringer (BI) Clone II
